Source: US6566104

Biological target: endogenous ErbB-4 of T47D human breast cancer cells (human) (UniProt Q15303)
Experiment: cell-based or functional assay

Sequence of UniProt Q15303 (Q15303 26-1308, stated change not applied): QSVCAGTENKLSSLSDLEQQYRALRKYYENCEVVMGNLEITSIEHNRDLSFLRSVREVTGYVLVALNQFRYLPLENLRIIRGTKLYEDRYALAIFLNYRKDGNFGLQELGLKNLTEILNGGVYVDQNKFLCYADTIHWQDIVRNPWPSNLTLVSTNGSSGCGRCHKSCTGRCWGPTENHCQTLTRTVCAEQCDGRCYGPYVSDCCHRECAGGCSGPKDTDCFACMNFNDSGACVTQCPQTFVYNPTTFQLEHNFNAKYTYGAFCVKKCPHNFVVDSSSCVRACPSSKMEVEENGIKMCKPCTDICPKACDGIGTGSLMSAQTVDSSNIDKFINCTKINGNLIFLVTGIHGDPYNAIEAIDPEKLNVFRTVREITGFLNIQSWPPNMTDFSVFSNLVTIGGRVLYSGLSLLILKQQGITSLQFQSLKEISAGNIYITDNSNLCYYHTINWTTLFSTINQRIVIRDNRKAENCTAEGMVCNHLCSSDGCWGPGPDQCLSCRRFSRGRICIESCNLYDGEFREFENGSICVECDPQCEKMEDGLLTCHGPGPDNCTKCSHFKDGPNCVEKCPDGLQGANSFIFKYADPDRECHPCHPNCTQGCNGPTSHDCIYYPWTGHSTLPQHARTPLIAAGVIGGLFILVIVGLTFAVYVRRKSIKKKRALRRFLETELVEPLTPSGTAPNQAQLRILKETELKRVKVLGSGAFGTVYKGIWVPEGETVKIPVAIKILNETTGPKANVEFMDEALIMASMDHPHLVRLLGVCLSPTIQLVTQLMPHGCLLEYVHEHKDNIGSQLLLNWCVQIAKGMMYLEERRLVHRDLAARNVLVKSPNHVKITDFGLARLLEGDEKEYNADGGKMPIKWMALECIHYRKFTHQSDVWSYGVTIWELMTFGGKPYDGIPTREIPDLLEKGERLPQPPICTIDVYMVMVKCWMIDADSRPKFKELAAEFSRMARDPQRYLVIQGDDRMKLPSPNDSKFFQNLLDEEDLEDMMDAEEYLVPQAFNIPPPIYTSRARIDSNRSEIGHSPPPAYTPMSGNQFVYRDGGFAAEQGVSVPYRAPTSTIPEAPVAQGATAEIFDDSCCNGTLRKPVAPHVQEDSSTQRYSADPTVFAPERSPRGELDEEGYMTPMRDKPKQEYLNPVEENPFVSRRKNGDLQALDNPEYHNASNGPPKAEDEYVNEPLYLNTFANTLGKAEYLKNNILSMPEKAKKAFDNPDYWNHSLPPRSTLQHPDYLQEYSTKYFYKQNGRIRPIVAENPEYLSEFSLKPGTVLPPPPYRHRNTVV

With “NRG1-α (from UniProt Q02297 177-241) (ligand)” the colony formation in soft agar, T47D wild type cells treated with neuregulin (FIG. 13) was 11 fold and the colony formation in soft agar, ribozyme transfected T47D cells (T47D/Rz, ErbB-4 down-regulated) was 2.5 fold.
